The numbers were not newly measured in PMC3667669, which cites them from elsewhere.

pKd: −log10 of the molar value. Read-outs that look alike come from different tables or passages of the source.

Usually pKd stands for the negative decadic logarithm of the Kd, by convention in mol/L.

Data set [1] concerns the target Cdc42 (Homo sapiens) (UniProt P60953).
Data set [2] has the same target. The source holds these as a separate data set.

Chain of Cdc42 (Homo sapiens) (P60953 1-188): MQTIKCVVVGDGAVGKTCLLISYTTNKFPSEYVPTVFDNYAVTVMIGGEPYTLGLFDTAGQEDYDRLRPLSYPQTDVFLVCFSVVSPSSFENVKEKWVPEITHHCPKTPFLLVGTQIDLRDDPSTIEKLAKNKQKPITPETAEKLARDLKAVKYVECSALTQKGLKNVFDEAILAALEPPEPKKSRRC
Chain of mero221-CBD CBD (P42768 201-321): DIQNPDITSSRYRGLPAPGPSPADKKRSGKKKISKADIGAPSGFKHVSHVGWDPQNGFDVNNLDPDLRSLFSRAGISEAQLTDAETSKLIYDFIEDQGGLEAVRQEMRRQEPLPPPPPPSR
Chain of CBD fragment CBD (P42768 201-321): as above

Take CBD fragment CBD (from UniProt P42768): the negative logarithm of the Kd (pKd) with Cdc42 (Homo sapiens) [1] is 7.11.
As for mero221-CBD CBD (from UniProt P42768), in the data set with Cdc42 (Homo sapiens) [2], the pKd was 6.82.
